# Measurements: patent publication US20220064329A1 (Novo Nordisk, published 2022)
# T1: recombinant human activated Factor VII (FVIIa) (human, UniProt P08709 61-212; P08709 213-466, ten glutamate residues of the Gla domain may be gamma-carboxylated)
# T1 construct: chains tethered by a disulfide bond; also called Factor VIIa; rFVIIa
# T1 sequence 1: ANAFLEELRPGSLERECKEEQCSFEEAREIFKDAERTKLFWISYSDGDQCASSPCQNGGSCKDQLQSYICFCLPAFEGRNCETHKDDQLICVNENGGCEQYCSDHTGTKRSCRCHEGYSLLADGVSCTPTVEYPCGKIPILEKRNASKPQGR
# T1 sequence 2: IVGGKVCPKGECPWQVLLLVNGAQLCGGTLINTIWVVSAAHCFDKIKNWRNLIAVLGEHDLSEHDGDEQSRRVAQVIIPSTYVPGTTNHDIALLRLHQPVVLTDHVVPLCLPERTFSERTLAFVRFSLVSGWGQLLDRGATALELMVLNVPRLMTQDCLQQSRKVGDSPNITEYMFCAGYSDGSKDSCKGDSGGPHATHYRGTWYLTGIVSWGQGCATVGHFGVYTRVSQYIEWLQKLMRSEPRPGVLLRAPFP
# Target: T1, recombinant human activated Factor VII …
# Assay: BLI (Fortebio)
row,Binder,Kd
1,"VH SEQ ID NO 642 / VL SEQ ID NO 430 (antibody, IgG4, V domains shown, humanized 11F2; IgG4 S228P/kappa) VH: QVQLQESGPGLVKPSQTLSLTCTVSGYSISSDSAWSWIRQPPGKGLEWIGYIYYSGSTNYNPSLKSRVTISVDTSKNQFSLKLSSVTAADTAVYYCARSVNYYGNSFAVGYWGQGTSVTVSS VL: EIVLTQSPATLSLSPGERATLSCRASQGVSDYLAWYQQKPGQAPRLLIKYASQPATGIPARFSGSGSGTDFTLTISSLEPEDFGVYYCQNGHSFPLTFGQGTKLEIK",540 nM
2,"VH SEQ ID NO 642 / VL SEQ ID NO 494 (antibody, IgG4, V domains shown, humanized 11F2; IgG4 S228P/kappa) VH: QVQLQESGPGLVKPSQTLSLTCTVSGYSISSDSAWSWIRQPPGKGLEWIGYIYYSGSTNYNPSLKSRVTISVDTSKNQFSLKLSSVTAADTAVYYCARSVNYYGNSFAVGYWGQGTSVTVSS VL: EIVLTQSPATLSLSPGERATLSCRASQGVSDYLHWYQQKPGQAPRLLIKYASQPATGIPARFSGSGSGTDFTLTISSLEPEDVAVYYCQNGHSFPLTFGQGTKLEIK",10 nM
3,"VH SEQ ID NO 642 / VL SEQ ID NO 478 (antibody, IgG4, V domains shown, humanized 11F2; IgG4 S228P/kappa) VH: QVQLQESGPGLVKPSQTLSLTCTVSGYSISSDSAWSWIRQPPGKGLEWIGYIYYSGSTNYNPSLKSRVTISVDTSKNQFSLKLSSVTAADTAVYYCARSVNYYGNSFAVGYWGQGTSVTVSS VL: EIVLTQSPATLSLSPGERATLSCRASQGVSDYLHWYQQKPGQAPRLLIKYASQPATGIPARFSGSGSGTDFTLTISSLEPEDFAVYYCQQGHSFPLTFGQGTKLEIK",11 nM
4,"VH SEQ ID NO 642 / VL SEQ ID NO 438 (antibody, IgG4, V domains shown, humanized 11F2; IgG4 S228P/kappa) VH: QVQLQESGPGLVKPSQTLSLTCTVSGYSISSDSAWSWIRQPPGKGLEWIGYIYYSGSTNYNPSLKSRVTISVDTSKNQFSLKLSSVTAADTAVYYCARSVNYYGNSFAVGYWGQGTSVTVSS VL: EIVLTQSPATLSLSPGERATLSCRASQGVSDYLAWYQQKPGQAPRLLIKYASQPATGIPARFSGSGSGTDFTLTISSLEPEDVAVYYCQNGHSFPLTFGQGTKLEIK",33 nM
5,"VH SEQ ID NO 642 / VL SEQ ID NO 454 (antibody, IgG4, V domains shown, humanized 11F2; IgG4 S228P/kappa) VH: QVQLQESGPGLVKPSQTLSLTCTVSGYSISSDSAWSWIRQPPGKGLEWIGYIYYSGSTNYNPSLKSRVTISVDTSKNQFSLKLSSVTAADTAVYYCARSVNYYGNSFAVGYWGQGTSVTVSS VL: EIVLTQSPATLSLSPGERATLSCRASQGVSDYLHWYQQKPGEAPRLLIKYASQPATGIPARFSGSGSGTDFTLTISSLEPEDFAVYYCQNGHSFPLTFGQGTKLEIK",25 nM
6,"VH SEQ ID NO 642 / VL SEQ ID NO 470 (antibody, IgG4, V domains shown, humanized 11F2; IgG4 S228P/kappa) VH: QVQLQESGPGLVKPSQTLSLTCTVSGYSISSDSAWSWIRQPPGKGLEWIGYIYYSGSTNYNPSLKSRVTISVDTSKNQFSLKLSSVTAADTAVYYCARSVNYYGNSFAVGYWGQGTSVTVSS VL: EIVLTQSPATLSLSPGERATLSCRASQGVSDYLHWYQQKPGQAPRLLIKYASQPATGIPARFSGSGSGTDFTLTISSLEPEDFAVYYCQNGHSFPLTFGQGTKLEIK",47 nM
7,"VH SEQ ID NO 642 / VL SEQ ID NO 486 (antibody, IgG4, V domains shown, humanized 11F2; IgG4 S228P/kappa) VH: QVQLQESGPGLVKPSQTLSLTCTVSGYSISSDSAWSWIRQPPGKGLEWIGYIYYSGSTNYNPSLKSRVTISVDTSKNQFSLKLSSVTAADTAVYYCARSVNYYGNSFAVGYWGQGTSVTVSS VL: EIVLTQSPATLSLSPGERATLSCRASQGVSDYLHWYQQKPGQAPRLLIKYASQPATGIPARFSGSGSGTDFTLTISSLEPEDFGVYYCQNGHSFPLTFGQGTKLEIK",7.7 nM
8,"VH SEQ ID NO 650 / VL SEQ ID NO 310 (antibody, IgG4, V domains shown, humanized 11F2; IgG4 S228P/kappa) VH: QVQLQESGPGLVKPSQTLSLTCTVSGYSISSDSAWSWIRQPPGKKLEWIGYIQYSGSTNYNPSLKSRVTISRDTSKNQFSLKLSSVTAADTAVYYCARSVNYYGNSFAVGPWGQGTLVTVSS VL: EIVLTQSPATLSLSPGERATLSCRASQGISDYLAWYQQKPGQAPRLLIKYASQPATGIPARFSGSGSGTDFTLTISSLEPEDFAVYYCQNGHSFPLTFGQGTKLEIK",16 nM
9,"VH SEQ ID NO 642 / VL SEQ ID NO 462 (antibody, IgG4, V domains shown, humanized 11F2; IgG4 S228P/kappa) VH: QVQLQESGPGLVKPSQTLSLTCTVSGYSISSDSAWSWIRQPPGKGLEWIGYIYYSGSTNYNPSLKSRVTISVDTSKNQFSLKLSSVTAADTAVYYCARSVNYYGNSFAVGYWGQGTSVTVSS VL: EIVLTQSPATLSLSPGERATLSCRASQGVSDYLHWYQQKPGQAPRLLIKYASQPATGIPARFSGSGSGTDFTLTISSLEPEDFAVYYCQNGHSFPLTFGAGTKLEIK",52 nM

# Stronger by Kd, values ahead:
row,Kd,Binder
1,4.6 nM,"VH SEQ ID NO 642 / VL SEQ ID NO 502 (antibody, IgG4, V domains shown, humanized 11F2; IgG4 S228P/kappa) VH: QVQLQESGPGLVKPSQTLSLTCTVSGYSISSDSAWSWIRQPPGKGLEWIGYIYYSGSTNYNPSLKSRVTISVDTSKNQFSLKLSSVTAADTAVYYCARSVNYYGNSFAVGYWGQGTSVTVSS VL: EIVLTQSPATLSLSPGERATLSCRASQGVSDYLHWYQQKPGQAPRLLIKYTSQPATGIPARFSGSGSGTDFTLTISSLEPEDFAVYYCQNGHSFPLTFGQGTKLEIK"
2,1.6 nM,"VH SEQ ID NO 650 / VL SEQ ID NO 342 (antibody, IgG4, V domains shown, humanized 11F2; IgG4 S228P/kappa) VH: QVQLQESGPGLVKPSQTLSLTCTVSGYSISSDSAWSWIRQPPGKKLEWIGYIQYSGSTNYNPSLKSRVTISRDTSKNQFSLKLSSVTAADTAVYYCARSVNYYGNSFAVGPWGQGTLVTVSS VL: EIVLTQSPATLSLSPGERATLSCRASQGISDYLHWYQQKPGQAPRLLIKYTSQPATGIPARFSGSGSGRDFTLTISSLEPEDFAVYYCQNGHSFPLTFGAGTKLELK"
3,1.5 nM,"VH SEQ ID NO 650 / VL SEQ ID NO 334 (antibody, IgG4, V domains shown, humanized 11F2; IgG4 S228P/kappa) VH: QVQLQESGPGLVKPSQTLSLTCTVSGYSISSDSAWSWIRQPPGKKLEWIGYIQYSGSTNYNPSLKSRVTISRDTSKNQFSLKLSSVTAADTAVYYCARSVNYYGNSFAVGPWGQGTLVTVSS VL: EIVLTQSPATLSLSPGERATLSCRASQGISDYLHWYQQKPGQAPRLLIKYASQPATGIPARFSGSGSGTDFTLTISSLEPEDFAVYYCQNGHSFPLTFGQGTKLEIK"
4,1.2 nM,"VH SEQ ID NO 650 / VL SEQ ID NO 318 (antibody, IgG4, V domains shown, humanized 11F2; IgG4 S228P/kappa) VH: QVQLQESGPGLVKPSQTLSLTCTVSGYSISSDSAWSWIRQPPGKKLEWIGYIQYSGSTNYNPSLKSRVTISRDTSKNQFSLKLSSVTAADTAVYYCARSVNYYGNSFAVGPWGQGTLVTVSS VL: EIVLTQSPATLSLSPGERATLSCRASQGISDYLHWYQQKPGEAPRLLIKYTSQPATGIPARFSGSGSGTDFTLTISSLEPEDFAVYYCQNGHSFPLTFGQGTKLEIK"
5,1.1 nM,"VH SEQ ID NO 650 / VL SEQ ID NO 326 (antibody, IgG4, V domains shown, humanized 11F2; IgG4 S228P/kappa) VH: QVQLQESGPGLVKPSQTLSLTCTVSGYSISSDSAWSWIRQPPGKKLEWIGYIQYSGSTNYNPSLKSRVTISRDTSKNQFSLKLSSVTAADTAVYYCARSVNYYGNSFAVGPWGQGTLVTVSS VL: EIVLTQSPATLSLSPGERATLSCRASQGISDYLHWYQQKPGEAPRLLIKYTSQPATGIPARFSGSGSGTDFTLTISSLEPEDFGVYYCQNGHSFPLTFGAGTKLELK"
6,1.1 nM,"VH SEQ ID NO 650 / VL SEQ ID NO 358 (antibody, IgG4, V domains shown, humanized 11F2; IgG4 S228P/kappa) VH: QVQLQESGPGLVKPSQTLSLTCTVSGYSISSDSAWSWIRQPPGKKLEWIGYIQYSGSTNYNPSLKSRVTISRDTSKNQFSLKLSSVTAADTAVYYCARSVNYYGNSFAVGPWGQGTLVTVSS VL: EIVLTQSPATLSLSPGERATLSCRASQGISDYLHWYQQKPGQAPRLLIKYTSQPATGIPARFSGSGSGTDFTLTISSLEPEDFAVYYCQNGHSFPLTFGQGTKLEIK"
7,0.99 nM,"VH SEQ ID NO 650 / VL SEQ ID NO 350 (antibody, IgG4, V domains shown, humanized 11F2; IgG4 S228P/kappa) VH: QVQLQESGPGLVKPSQTLSLTCTVSGYSISSDSAWSWIRQPPGKKLEWIGYIQYSGSTNYNPSLKSRVTISRDTSKNQFSLKLSSVTAADTAVYYCARSVNYYGNSFAVGPWGQGTLVTVSS VL: EIVLTQSPATLSLSPGERATLSCRASQGISDYLHWYQQKPGQAPRLLIKYTSQPATGIPARFSGSGSGTDFTLTISSLEPEDFAVYYCQNGHSFPLTFGAGTKLELK"
